Target: T1, GST-GP73 (aa36-401) (human, UniProt Q8NBJ4 36-401)
T1 construct: also called recombinant GST-GP73; GST-fused GP73; source: E. coli BL21, purified (glutathione Sepharose 4B)
T1 sequence (looked up): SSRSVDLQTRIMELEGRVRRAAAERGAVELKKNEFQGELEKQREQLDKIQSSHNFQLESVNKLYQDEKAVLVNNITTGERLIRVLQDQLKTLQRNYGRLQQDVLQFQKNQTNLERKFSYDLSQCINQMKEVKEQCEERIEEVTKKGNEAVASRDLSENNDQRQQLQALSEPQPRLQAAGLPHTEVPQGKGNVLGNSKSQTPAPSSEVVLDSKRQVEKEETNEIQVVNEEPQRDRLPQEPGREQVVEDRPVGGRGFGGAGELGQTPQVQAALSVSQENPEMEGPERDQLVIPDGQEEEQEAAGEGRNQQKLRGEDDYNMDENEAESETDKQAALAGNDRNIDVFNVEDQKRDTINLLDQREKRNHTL
Assay: pull-down; purified MBP, MBP-M11 or MBP-T6CC (20 μg) with 10 μg GST or 20 μg GST-GP73 overnight at 4°C; WB (S4A Fig)
Conditions: both partners purified

B1: MBP-M11 (domain or fragment, UniProt Q7Z434 1-90, looked up)
chain: MPFAEDKTYKYICRNFSNFCNVDVVEILPYLPCLTARDQDRLRATCTLSGNRDTLWHLFNTLQRRPGWVEYFIAALRGCELVDLADEVASISASTSLGMGPCHGPEENEYKSEGTFGIHVAENPSIQLLEGNPGPPADPDGGPRPQADRKFQEREVPCHRPSPGALWLQVAVTGVLVVTLLVVLYRRRLH
notes: also called MBP-fused M11; source: E. coli BL21, purified (amylose resin)
binding result: binds

Source: PMC5398727, “GP73 represses host innate immune response to promote virus replication by facilitating MAVS and TRAF6 degradation” (PLoS Pathogens, 2017)
